Data reported in US20230242646A1 (JJP BIOLOGICS SP Z O O, published 2023).

Key:
[1] = biological target: T1, membrane-bound full-length human CD89 on HEK293F cells (human, UniProt P24071 22-287); assay: FACS HEK293F-huCD89
T1 construct: 2 or transient transfectants; also called membrane human CD89; human FcaRI
Protocol: After extensive washing in PBS/BSA/NaN₃, cells were subsequently incubated with 1:200 diluted PE-conjugated goat anti-human IgG Fcy-specific antibodies (Jackson ImmunoResearch) for 30 minutes at 4° C. After extensive washing in PBS/BSA/NaN₃, cells were fixed in 2% formaldehyde in PBS/BSA/NaN₃ for 30 minutes at 4° C.

[2] = biological target: T2, recombinant C-terminal polyhistidine-tagged human (extracellular) CD89 (Sino Biological) (human, UniProt P24071 22-227); assay: ELISA, coated rhuCD89
T2 construct: extracellular domain; bought protein; also called rhuCD89; soluble monomeric rhuCD89
Protocol: (§1) After extensive washing with PBS/0.05% Tween 20, plates were blocked with PBS/0.05% Tween 20/1% BSA (Roche) for 1 hour at RT. Subsequently, plates were incubated with 50 µL titrated (in block buffer) purified mouse anti-human CD89 antibody/well for 1 hour at RT. […] After extensive washing in PBS/0.05% Tween 20, binding of antibodies on rhuCD89 was determined with 1:5,000 diluted horseradish peroxidase (HRP)-conjugated goat anti-mouse IgG Fcy-specific antibodies (Jackson ImmunoResearch) for 1 hour at RT, followed by a ready-to-use solution of TMB substrate (Invitrogen) for colorimetric detection.
After extensive washing with PBS/0.05% Tween 20, plates were blocked with PBS/0.05% Tween 20/1% BSA (Roche) for 1 hour at RT. […] After extensive washing in PBS/0.05% Tween 20, binding of antibodies on rhuCD89 was determined with 1:5,000 diluted horseradish peroxidase (HRP)-conjugated goat anti-human IgG Fcy-specific antibodies (Jackson ImmunoResearch) for 1 hour at RT, followed by a ready-to-use solution of TMB substrate (Invitrogen) for colorimetric detection.

[3] = biological target: T1, membrane-bound full-length human CD89 …; assay: FACS HEK293F-huCD89, 10 ug/mL; competitor PE-A3
Protocol: (§2) Then, 10 µL/tube (i.e., 0.1 × 10⁶ cells) of these cells were incubated with or without 100 µL purified mouse anti-human CD89 antibody at 10 µg/mL (in PBS/BSA/NaN₃) for 30 minutes at 4° C. […] After extensive washing in PBS/BSA/NaN₃, cells were fixed in 2% formaldehyde in PBS/BSA/NaN₃ for 30 minutes at 4° C.

[4] = biological target: T1, membrane-bound full-length human CD89 …; assay: FACS HEK293F-huCD89, 10 ug/mL; competitor PE-A59
Protocol: as §2

[5] = biological target: T1, membrane-bound full-length human CD89 …; assay: FACS HEK293F-huCD89, 10 ug/mL; competitor PE-MIP8a
Protocol: as §2

[6] = biological target: T3, chimeric bovine EC1-Fcgamma2R/human EC2-CD89 on HEK293F cells (bovine/human chimera); assay: FACS, transiently transfected HEK293F
T3 chain: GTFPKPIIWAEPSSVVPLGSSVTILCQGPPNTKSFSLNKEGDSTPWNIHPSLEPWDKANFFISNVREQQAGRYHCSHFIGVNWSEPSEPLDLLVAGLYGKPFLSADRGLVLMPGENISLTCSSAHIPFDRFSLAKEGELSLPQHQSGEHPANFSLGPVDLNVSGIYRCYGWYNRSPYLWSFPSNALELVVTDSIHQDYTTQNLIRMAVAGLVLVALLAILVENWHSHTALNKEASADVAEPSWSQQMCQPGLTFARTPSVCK
Protocol: To this end, transient transfected HEK293F cells were put at 10 × 10⁶ cells/mL in ice-chilled phosphate-buffered saline containing 0.1% BSA (Sigma)/0.05% NaN₃ (PBS/BSA/NaN₃) supplemented with 50 µg/mL human IgGs (blocking Fcy receptors; Sigma) for 10 minutes at 4° C. Then, 10 µL/tube (i.e., 0.1 × 10⁶ cells) of these cells were incubated with or without 100 µL purified mouse anti-human CD89 antibody at 10 µg/mL (in PBS/BSA/NaN₃) for 30 minutes at 4° C. […] After extensive washing in PBS/BSA/NaN₃, cells were subsequently incubated with 1:200 diluted PE-conjugated goat anti-mouse IgG Fcy-specific antibodies (Jackson ImmunoResearch) for 30 minutes at 4° C. After extensive washing in PBS/BSA/NaN₃, cells were fixed in 2% formaldehyde in PBS/BSA/NaN₃ for 30 minutes at 4° C.

[7] = biological target: T4, chimeric human/cynomolgus monkey CD89-hotspots on HEK293F cells (human/cynomolgus chimera, UniProt P24071 22-287); assay: FACS, transiently transfected HEK293F
T4 construct: also called dThr58, Gln59; dArg73, Arg74, Lys76
T4 chain: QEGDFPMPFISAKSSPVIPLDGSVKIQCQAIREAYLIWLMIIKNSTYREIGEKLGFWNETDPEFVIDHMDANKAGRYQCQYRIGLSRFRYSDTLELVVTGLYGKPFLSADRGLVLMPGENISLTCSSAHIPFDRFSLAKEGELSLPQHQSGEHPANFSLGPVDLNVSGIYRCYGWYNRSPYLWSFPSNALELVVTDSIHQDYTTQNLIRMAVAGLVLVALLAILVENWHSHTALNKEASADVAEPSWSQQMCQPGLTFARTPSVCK
Protocol: (§3) To this end, transient transfected HEK293F cells were put at 10 × 10⁶ cells/mL in ice-chilled phosphate-buffered saline containing 0.1% BSA (Sigma)/0.05% NaN₃ (PBS/BSA/NaN₃) supplemented with 50 µg/mL human IgGs (blocking FcY receptors; Sigma) for 10 minutes at 4° C. Then, 10 µL/tube (i.e., 0.1 × 10⁶ cells) of these cells were incubated with or without 100 µL purified mouse anti-human CD89 antibody at 10 µg/mL (in PBS/BSA/NaN₃) for 30 minutes at 4° C. […] After extensive washing in PBS/BSA/NaN₃, cells were subsequently incubated with 1:200 diluted PE-conjugated goat anti-mouse IgG Fcy-specific antibodies (Jackson ImmunoResearch) for 30 minutes at 4° C. After extensive washing in PBS/BSA/NaN₃, cells were fixed in 2% formaldehyde in PBS/BSA/NaN₃ for 30 minutes at 4° C.

[8] = biological target: T5, membrane full-length cynomolgus monkey CD89 on HEK293F cells (cynomolgus monkey); assay: FACS, 10 µg/mL, transiently transfected HEK293F
T5 construct: also called cynoCD89; cynomolgus EC1-CD89
T5 chain: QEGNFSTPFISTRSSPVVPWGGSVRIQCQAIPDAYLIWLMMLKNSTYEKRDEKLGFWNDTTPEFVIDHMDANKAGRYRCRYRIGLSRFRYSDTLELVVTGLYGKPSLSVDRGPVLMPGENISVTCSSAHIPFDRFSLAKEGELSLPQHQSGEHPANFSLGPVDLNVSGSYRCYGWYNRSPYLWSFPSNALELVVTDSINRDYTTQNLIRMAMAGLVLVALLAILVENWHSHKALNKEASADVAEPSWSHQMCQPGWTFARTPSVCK
Protocol: To this end, transient transfected HEK293F cells were put at 10 x 10⁶ cells/mL in ice-chilled phosphate-buffered saline containing 0.1% BSA (Sigma)/0.05% NaN₃ (PBS/BSA/NaN₃) supplemented with 50 µg/mL human IgGs (blocking FcY receptors; Sigma) for 10 minutes at 4° C. Then, 10 µL/tube (i.e., 0.1 × 10⁶ cells) of these cells were incubated with or without 100 µL purified mouse anti-human CD89 antibody at 10 µg/mL (in PBS/BSA/NaN₃) for 30 minutes at 4° C. […] After extensive washing in PBS/BSA/NaN₃, cells were subsequently incubated with 1:200 diluted PE-conjugated goat anti-mouse IgG Fcy-specific antibodies (Jackson ImmunoResearch) for 30 minutes at 4° C. After extensive washing in PBS/BSA/NaN₃, cells were fixed in 2% formaldehyde in PBS/BSA/NaN₃ for 30 minutes at 4° C.

[9] = biological target: T6, chimeric human/cynomolgus monkey CD89-I on HEK293F cells (human/cynomolgus chimera, UniProt P24071 22-287); assay: FACS, 10 µg/mL, transiently transfected HEK293F
T6 construct: also called dGln22 - Lys46 human EC1-CD89; I (22-46)
T6 chain: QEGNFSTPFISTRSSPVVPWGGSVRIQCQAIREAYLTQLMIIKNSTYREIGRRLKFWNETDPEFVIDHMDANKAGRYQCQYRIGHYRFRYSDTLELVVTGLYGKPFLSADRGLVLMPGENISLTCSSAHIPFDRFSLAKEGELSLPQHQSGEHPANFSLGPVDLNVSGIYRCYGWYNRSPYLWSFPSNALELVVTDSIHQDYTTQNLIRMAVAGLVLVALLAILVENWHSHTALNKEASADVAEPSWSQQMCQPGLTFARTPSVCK
Protocol: as §3

[10] = biological target: T7, chimeric human/cynomolgus monkey CD89-II on HEK293F cells (human/cynomolgus chimera, UniProt P24071 22-287); assay: FACS, 10 µg/mL, transiently transfected HEK293F
T7 construct: also called dIle47 - Ile71 human EC1-CD89; II (47-71)
T7 chain: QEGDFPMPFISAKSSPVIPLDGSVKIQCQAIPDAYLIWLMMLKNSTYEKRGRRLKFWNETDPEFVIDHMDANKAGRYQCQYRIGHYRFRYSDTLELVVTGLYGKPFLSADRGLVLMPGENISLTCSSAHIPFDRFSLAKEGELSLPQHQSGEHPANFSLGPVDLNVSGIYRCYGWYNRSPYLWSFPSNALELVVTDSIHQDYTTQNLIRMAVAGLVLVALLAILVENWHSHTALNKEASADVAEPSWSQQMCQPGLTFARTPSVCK
Protocol: as §3

[11] = biological target: T8, chimeric human/cynomolgus monkey CD89-III on HEK293F cells (human/cynomolgus chimera, UniProt P24071 22-287); assay: FACS, 10 µg/mL, transiently transfected HEK293F
T8 construct: also called dGly72 - Gly96 human EC1-CD89; III (72-96)
T8 chain: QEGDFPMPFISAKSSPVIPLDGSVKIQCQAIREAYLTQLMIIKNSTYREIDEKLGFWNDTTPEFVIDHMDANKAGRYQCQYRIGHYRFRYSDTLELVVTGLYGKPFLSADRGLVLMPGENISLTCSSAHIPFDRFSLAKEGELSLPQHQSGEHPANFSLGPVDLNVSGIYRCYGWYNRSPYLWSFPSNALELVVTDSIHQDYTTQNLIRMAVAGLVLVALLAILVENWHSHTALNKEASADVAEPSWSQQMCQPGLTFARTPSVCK
Protocol: as §3

[12] = biological target: T9, chimeric human/cynomolgus monkey CD89-IV on HEK293F cells (human/cynomolgus chimera, UniProt P24071 22-287); assay: FACS, 10 µg/mL, transiently transfected HEK293F
T9 construct: also called dArg97 - Gly121 human EC1-CD89
T9 chain: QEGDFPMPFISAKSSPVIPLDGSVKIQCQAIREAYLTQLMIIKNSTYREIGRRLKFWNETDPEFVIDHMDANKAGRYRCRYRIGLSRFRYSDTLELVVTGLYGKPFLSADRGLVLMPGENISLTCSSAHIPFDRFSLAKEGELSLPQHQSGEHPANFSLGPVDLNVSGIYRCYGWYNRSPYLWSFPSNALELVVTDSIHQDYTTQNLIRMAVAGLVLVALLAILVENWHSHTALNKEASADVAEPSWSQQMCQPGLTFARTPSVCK
Protocol: as §3

[13] = biological target: T2, recombinant C-terminal …; assay: ELISA on coated rhuCD89
Protocol: as §1

[14] = biological target: T10, membrane human CD89 on ex vivo primary human neutrophilic granulocytes or monocytic U937 cells (human, UniProt P24071 22-287); assay: cell-based or functional assay
[15] = biological target: T10, membrane human CD89 on ex vivo primary …; assay: cell-based or functional assay; remark: listed apart in the source
[16] = biological target: T5, membrane full-length cynomolgus monkey …; assay: FACS, transiently transfected HEK293F
[17] = biological target: T4, chimeric human/cynomolgus monkey …; assay: FACS, 10 µg/mL, transiently transfected HEK293F
Protocol: as §3

[18] = biological target: T1, membrane-bound full-length human CD89 …; assay: FACS, unlabelled antibody before A3-PE on HEK293F-huCD89
[19] = biological target: T1, membrane-bound full-length human CD89 …; assay: FACS, antibody before serum IgA on HEK293F-huCD89; IgA detected
[20] = biological target: T1, membrane-bound full-length human CD89 …; assay: FACS, antibody before secretory IgA on HEK293F-huCD89; IgA detected
Protocol: Then, 10 µL/tube (i.e., 0.1 x 10⁶ cells) of these cells were incubated with or without 50 µL titrated (in PBS/BSA/NaN₃) purified mouse anti-human CD89 antibody/tube for 30 minutes at 4° C. […] After extensive washing in PBS/BSA/NaN₃, 1:200 diluted PE-conjugated streptavidin (Jackson ImmunoResearch) was added, and incubated for 30 minutes at 4° C. After extensive washing in PBS/BSA/NaN₃, cells were fixed in 4% formaldehyde in PBS/BSA/NaN₃ for 30 minutes at 4° C.

[21] = biological target: T1, membrane-bound full-length human CD89 …; assay: FACS on HEK293F-huCD89
Protocol: Then, 10 µL/tube (i.e., 0.1 x 10⁶ cells) of these cells were incubated with 100 µL titrated (in PBS/BSA/NaN₃) purified mouse anti-human CD89 antibody/tube for 30 minutes at 4° C. […] After extensive washing in PBS/BSA/NaN₃, cells were subsequently incubated with 1:200 diluted PE-conjugated goat anti-mouse IgG Fcy-specific antibodies (Jackson ImmunoResearch) for 30 minutes at 4° C. After extensive washing in PBS/BSA/NaN₃, cells were fixed in 2% formaldehyde in PBS/BSA/NaN₃ for 30 minutes at 4° C.

[22] = biological target: T10, membrane human CD89 on ex vivo primary …; assay: cell-based or functional assay; remark: listed apart in the source
[23] = biological target: T1, membrane-bound full-length human CD89 …; assay: FACS, unlabelled antibody before MIP8a-PE on HEK293F-huCD89
[24] = biological target: T2, recombinant C-terminal …; assay: ELISA, antibody before serum IgA on coated rhuCD89; IgA detected
Protocol: After extensive washing with PBS/0.05% Tween 20, plates were blocked with PBS/0.05% Tween 20/1% BSA (Roche) for 1 hour at RT. Subsequently, plates were incubated with 25 µL titrated (in block buffer) purified mouse anti-human CD89 antibody/well for 30 minutes at RT. […] After extensive washing in PBS/0.05% Tween 20, 1:10,000 diluted HRP-conjugated streptavidin (Jackson ImmunoResearch) was added, and incubated for 1 hour at RT, followed by a ready-to-use solution of TMB substrate (Invitrogen) for colorimetric detection.

B1: CD89/IgA blocking mouse anti-human CD89-specific antibody 16D6 (antibody, V domains shown)
VH: QVQLQQSGAELMKPGASVKISCKATGYTFSTYWIEWVKQRPGHGLEWIGEILPGSGSANYNEKFKGKATFTADTSSNTAYMQLSSLTFEDSAVYYCAKGFGSPYYYAMDYWGQGTSVTVSS
VL: EIVLTQSPALMAASPGEKVTITCSVSSSISSSNLHWYQQKSETSPKPWIYGTSKLASGVPVRFSGSGSGTSYSLTISNMEAEDAATYYCQQWSSFPLTFGGGTKLEIK
notes: also called 16D16 [sic]
With B1 the EC50 [1] was 1.62 µg/mL, the EC50 [2] was 0.119 µg/mL and the “% blocking of PE-A3 binding” value [3] was less than 25%. The “% blocking of PE-A59 binding” value [4] was less than 25%, the “% blocking of PE-MIP8a binding” value [5] was less than 25% and the binding result [6] was “no binding (tested: 10 µg/mL)”. B1: no binding (tested: 10 µg/mL) [7]; binds [8]; binds [9]. B1: binds [10]; binds [11]; binds [12].

B2: CD89/IgA blocking mouse anti-human CD89-specific antibody 26D6 (antibody, V domains shown)
VH: QIQLVQSGPELKKPGETVKISCKASGYTLTKYGMNWVKQAPGKGLKWMGWINTYTGEPTYADDFKGRFAFSLETSASTAYLQINNLKNEDTATYFCASLPLFGRDSFAYWGQGTLVTVSA
VL: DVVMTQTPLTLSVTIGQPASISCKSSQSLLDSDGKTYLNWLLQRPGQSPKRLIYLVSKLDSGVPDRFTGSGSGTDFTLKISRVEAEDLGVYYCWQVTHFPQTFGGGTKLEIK
notes: also called 26B6 [sic]
B2 was tested, and the “EC50 (read off the curve)” value [13] was roughly 0.008 µg/mL, the “IC50 (read off the bars), binding of granulocytes to plate-bound serum IgA [Donor 2]” value [14] was roughly 0.1 µg/mL and the “IC50 (read off the bars), binding of granulocytes to plate-bound serum IgA [Donor 3]” value [15] was roughly 1 µg/mL. The “% blocking of PE-MIP8a binding” value [5] was greater than 90%, the binding result [6] was “no binding (tested: 10 µg/mL)” and the binding result [16] was “no binding (tested: 10 µg/mL)”. B2: binds [9]; binds [10]; binds [11]. For the same binder, the binding result [17] was “binds”, the “IC50 (read off the curve)” value [18] was roughly 0.3 µg/mL and the “IC50 (read off the curve)” value [19] was roughly 0.2 µg/mL. For the same binder, the “IC50 (read off the curve)” value [20] was roughly 0.3 µg/mL.

B3: CD89/IgA blocking mouse anti-human CD89-specific antibody 9H7 (antibody, V domains shown)
VH: QIQLVQSGPELKKPGETVKISCKASGYTFKNYGMNWVKQAPGKGLKWMAWINTYTGEPTHTDDFKGRFVFSLETSASTAYLQINNLKNEDTATYFCARWGLGTTEEAARDYWGQGTTLTVSS
VL: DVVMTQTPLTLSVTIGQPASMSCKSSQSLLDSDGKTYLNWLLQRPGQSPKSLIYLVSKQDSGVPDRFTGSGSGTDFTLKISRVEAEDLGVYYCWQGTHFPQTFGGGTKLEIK
For B3, the “EC50 (read off the curve)” value [21] was roughly 0.2 µg/mL, the “EC50 (read off the curve)” value [13] was roughly 0.01 µg/mL and the “IC50 (read off the bars), binding of granulocytes to plate-bound serum IgA [Donor 1]” value [22] was roughly 0.9 µg/mL. The “IC50 (read off the bars), binding of granulocytes to plate-bound serum IgA [Donor 2]” value [14] was roughly 0.2 µg/mL, the “% blocking of PE-MIP8a binding” value [5] was greater than 90% and the “IC50 (read off the curve)” value [18] was roughly 0.4 µg/mL. For the same binder, the “IC50 (read off the curve)” value [23] was roughly 0.4 µg/mL, the “IC50 (read off the curve)” value [19] was roughly 0.2 µg/mL and the “IC50 (read off the curve)” value [24] was roughly 0.03 µg/mL. For the same binder, the “IC50 (read off the curve)” value [20] was roughly 0.4 µg/mL.
